Measurements published in paper PMC4728409.
Each block holds one substance with its values, some of them ahead of it.

Experiments:
[1] = target: phosphorylated pS674 peptide of UHRF1 (human (RefSeq NP_037414.3)); assay: SPR; BIAcore; biotinylated peptides on a streptavidin chip (about 250 RU); GST-BRCA1-BRCT as analyte, 39 nM to 2.5 μM (legend: 17 nM to 2.5 μM), 30 μl min^-1; 150 mM NaCl, 0.005% Polysorbate 20, 10 mM HEPES pH 7.4, 1 mM PMSF
BRCA1 = BRCA1 (UniProt P38398); assay: co-immunoprecipitation; settings: reference: wild type; sites S674
BRCA1 BRCT domain = BRCA1 BRCT domain (UniProt P38398); assay: far-Western, GST-BRCT overlay on His-UHRF1; settings: reference: kinase-treated His-UHRF1 WT; sites S674

Kd [1]: 356 nM
Substance: GST-BRCT (wild type) domain of BRCA1 (domain or fragment)

binding against the reference (BRCA1): weaker
Substance: UHRF1 (from UniProt Q96T88-2) S674A

binding against the reference (BRCA1 BRCT domain): lost
Substance: UHRF1 (from UniProt Q96T88-2) kinase-treated His-UHRF1 S674A
